# Laboratory results from patent US20040254135, “Modulation of metabolism of steroids and xenobiotics” (published 2004).
# B1: UGT1A6 DR-3 (dsDNA)
# DNA 1: ACTGTAGTTCATAAAGTTCACATGG
# DNA 2: CCATGTGAACTTTATGAACTACAGT
# What was measured:
# [1] = target: SXR:RXR heterodimer (UniProt O75469;P19793 O75469:1-434,P19793:1-462); assay: EMSA
# [2] = target: CAR:RXR heterodimer (UniProt Q14994;P19793 Q14994:1-352,P19793:1-462); assay: EMSA
# CAR:RXR heterodimer, sequence (Q14994 whole entry, chain 1 of 2): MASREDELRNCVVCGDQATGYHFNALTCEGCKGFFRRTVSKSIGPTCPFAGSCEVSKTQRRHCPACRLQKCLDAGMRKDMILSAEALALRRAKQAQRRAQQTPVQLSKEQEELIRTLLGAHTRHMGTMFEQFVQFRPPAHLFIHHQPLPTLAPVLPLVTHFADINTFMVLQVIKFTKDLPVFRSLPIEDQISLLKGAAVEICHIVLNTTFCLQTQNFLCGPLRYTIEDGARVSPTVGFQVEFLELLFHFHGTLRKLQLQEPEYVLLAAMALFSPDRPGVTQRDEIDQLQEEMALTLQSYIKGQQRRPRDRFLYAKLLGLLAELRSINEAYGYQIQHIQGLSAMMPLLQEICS
# CAR:RXR heterodimer, sequence (P19793 whole entry, chain 2 of 2): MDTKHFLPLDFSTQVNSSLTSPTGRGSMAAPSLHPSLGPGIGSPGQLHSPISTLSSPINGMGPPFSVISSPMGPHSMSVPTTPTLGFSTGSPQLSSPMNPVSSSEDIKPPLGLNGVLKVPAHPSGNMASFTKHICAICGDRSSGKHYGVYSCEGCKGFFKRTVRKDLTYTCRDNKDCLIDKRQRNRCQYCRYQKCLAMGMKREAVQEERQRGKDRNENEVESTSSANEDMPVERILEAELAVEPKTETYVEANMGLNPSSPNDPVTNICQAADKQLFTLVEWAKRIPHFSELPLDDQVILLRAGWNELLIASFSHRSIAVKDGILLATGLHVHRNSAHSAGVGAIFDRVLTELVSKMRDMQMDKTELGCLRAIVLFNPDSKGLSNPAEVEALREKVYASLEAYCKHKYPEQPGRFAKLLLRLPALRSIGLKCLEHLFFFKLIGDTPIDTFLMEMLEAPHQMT
# SXR:RXR heterodimer, sequence (O75469 whole entry, chain 1 of 2): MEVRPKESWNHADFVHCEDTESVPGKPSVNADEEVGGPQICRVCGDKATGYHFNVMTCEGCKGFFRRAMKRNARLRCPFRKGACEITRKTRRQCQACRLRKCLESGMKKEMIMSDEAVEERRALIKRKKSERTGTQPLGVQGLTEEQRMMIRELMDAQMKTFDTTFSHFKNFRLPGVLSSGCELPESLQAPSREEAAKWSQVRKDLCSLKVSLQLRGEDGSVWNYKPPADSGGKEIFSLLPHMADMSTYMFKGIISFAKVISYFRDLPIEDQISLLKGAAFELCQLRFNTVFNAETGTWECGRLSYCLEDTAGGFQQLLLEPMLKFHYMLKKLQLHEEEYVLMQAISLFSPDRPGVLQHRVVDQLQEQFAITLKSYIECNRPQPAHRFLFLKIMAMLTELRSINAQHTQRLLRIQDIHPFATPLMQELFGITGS
# SXR:RXR heterodimer, sequence (P19793 whole entry, chain 2 of 2): as the sequence (P19793 whole entry, chain 2 of 2) above
binder,measurement,setting,value
B1,binding result,[1],binds
same,binding result,[2],binds
